The text below walks through data of PMC11787825.

Where two headings read alike, the source gives them in different places.

Test in all cases: cryo-EM structure
Series [1] concerns the target T1, HSV-1 Pol (PolΔN42);UL42 (UL42ΔC340) (Herpes simplex virus 1 (strain …, UniProt H9E937;H9E949 43-1235;2-340, |)).
For series [2], the target named is T1, HSV-1 Pol (PolΔN42);UL42 (UL42ΔC340). This is another data set of the same source.
For series [3] the target is unchanged. This is another data set of the same source.

B1: PT1 (dsDNA)
DNA 1: GATTACGAATTCGAGCTCGGTACCCGGGGATC
DNA 2: CACACACACACACACACAGATCCCCGGGTACCGAGCTCGAATTCGTAATC
modifications: primer 3'-terminal dideoxycytidine (ddC)
As for B1, the binding result in series [1] was “binds”.

B2: PT3 (dsDNA)
DNA 1: GATTACGAATTCGAGCTCGGTACCCGGGGATCG
DNA 2: CACACACACACACACACAGATCCCCGGGTACCGAGCTCGAATTCGTAATC
modifications: phosphorothioate bonds at primer ends (after nt 1 and before the 3'-terminal G)
For B2, in series [2], the binding result is recorded as “binds”.

B3: PT2 (dsDNA)
DNA 1: GATTACGAATTCGAGCTCGGTACCCGGGGATC
DNA 2: CACACACACACACACACCGATCCCCGGGTACCGAGCTCGAATTCGTAATC
modifications: primer 3'-terminal dideoxycytidine (ddC)
In the case of B3, the binding result in series [3] is recorded as “binds”.
